From publication PMC5758563, “Structural analysis of mtEXO mitochondrial RNA degradosome reveals tight coupling of nuclease and helicase components”

Biological target: Cg-Dss1 (full-length, wild type) (Candida glabrata, UniProt Q6FJE0 24-923)
Assay: footprinting (RNase I protection); 2 mM ATP, 3 mM MgCl2; RNase I footprinting: 100 nM RNA, 150 nM protein, 20 mM Tris pH 7.4, 50 mM NaCl, 3 mM MgCl2, with or without 2 mM ATP, 30 C; EDTA added before RNase I. Crystal
Conditions: protein: recombinant; tags: His6-MBP removed by TEV; label: 32P body label

B1: L1 RNA (79 nt) (structured_RNA)
RNA: GGAACUCCAUAUAUGGGCUAUGAACUAAUGACCCCGUAAUUGAUUACUAUUAGCCCGGGCAAUGUGCACAUGUACCCUA
binding result: binds
